Target: Mc-VHA-a fused to YFP (M. crystallinum)
Experiment: FRET or BRET; in vivo FRET (CFP donor, YFP acceptor, fused to C-termini) in co-transformed A. thaliana mesophyll protoplasts; excitation 458 nm; acceptor photobleaching at 514 nm; confocal microscopy

Substance: Mc-VHA-c fused to CFP (natural protein)
- FRET efficiency: 0.45
